# B1: Vasculin (Homo sapiens), Q86WP2 (parent)
# chain: MAQHDFAPAWLNFPTPPSSTKSSLNFEKHSENFAWTENRYDVNRRRHNSSDGFDSAIGRPNGGNFGRKEKNGWRTHGRNGTENINHRGGYHGGSSRSRSSIFHAGKSQGLHENNIPDNETGRKEDKRERKQFEAEDFPSLNPEYEREPNHNKSLAAGVWEYPPNPKSRAPRMLVIKKGNTKDLQLSGFPVVGNLPSQPVKNGTGPSVYKGLVPKPAAPPTKPTQWKSQTKENKVGTSFPHESTFGVGNFNAFKSTAKNFSPSTNSVKECNRSNSSSPVDKLNQQPRLTKLTRMRTDKKSEFLKALKRDRVEEEHEDESRAGSEKDDDSFNLHNSNSTHQERDINRNFDENEIPQENGNASVISQQIIRSSTFPQTDVLSSSLEAEHRLLKEMGWQEDSENDETCAPLTEDEMREFQVISEQLQKNGLRKNGILKNGLICDFKFGPWKNSTFKPTTENDDTETSSSDTSDDDDV
# partner: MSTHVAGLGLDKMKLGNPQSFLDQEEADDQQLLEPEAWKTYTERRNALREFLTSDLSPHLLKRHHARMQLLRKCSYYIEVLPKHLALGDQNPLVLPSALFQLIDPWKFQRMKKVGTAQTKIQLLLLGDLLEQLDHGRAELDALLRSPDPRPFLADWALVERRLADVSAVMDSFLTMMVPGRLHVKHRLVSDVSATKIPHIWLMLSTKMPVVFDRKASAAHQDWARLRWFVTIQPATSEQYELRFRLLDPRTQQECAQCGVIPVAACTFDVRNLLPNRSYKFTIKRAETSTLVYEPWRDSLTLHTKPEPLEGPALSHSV
# B2: Transcription factor 19 (Homo sapiens), Q9Y242 (parent)
# chain: MLPCFQLLRIGGGRGGDLYTFHPPAGAGCTYRLGHRADLCDVALRPQQEPGLISGIHAELHAEPRGDDWRVSLEDHSSQGTLVNNVRLPRGHRLELSDGDLLTFGPEGPPGTSPSEFYFMFQQVRVKPQDFAAITIPRSRGEARVGAGFRPMLPSQGAPQRPLSTFSPAPKATLILNSIGSLSKLRPQPLTFSPSWGGPKSLPVPAPPGEMGTTPSAPPQRNRRKSVHRVLAELDDESEPPENPPPVLMEPRKKLRVDKAPLTPTGNRRGRPRKYPVSAPMAPPAVGGGEPCAAPCCCLPQEETVAWVQCDGCDVWFHVACVGCSIQAAREADFRCPGCRAGIQT
# partner: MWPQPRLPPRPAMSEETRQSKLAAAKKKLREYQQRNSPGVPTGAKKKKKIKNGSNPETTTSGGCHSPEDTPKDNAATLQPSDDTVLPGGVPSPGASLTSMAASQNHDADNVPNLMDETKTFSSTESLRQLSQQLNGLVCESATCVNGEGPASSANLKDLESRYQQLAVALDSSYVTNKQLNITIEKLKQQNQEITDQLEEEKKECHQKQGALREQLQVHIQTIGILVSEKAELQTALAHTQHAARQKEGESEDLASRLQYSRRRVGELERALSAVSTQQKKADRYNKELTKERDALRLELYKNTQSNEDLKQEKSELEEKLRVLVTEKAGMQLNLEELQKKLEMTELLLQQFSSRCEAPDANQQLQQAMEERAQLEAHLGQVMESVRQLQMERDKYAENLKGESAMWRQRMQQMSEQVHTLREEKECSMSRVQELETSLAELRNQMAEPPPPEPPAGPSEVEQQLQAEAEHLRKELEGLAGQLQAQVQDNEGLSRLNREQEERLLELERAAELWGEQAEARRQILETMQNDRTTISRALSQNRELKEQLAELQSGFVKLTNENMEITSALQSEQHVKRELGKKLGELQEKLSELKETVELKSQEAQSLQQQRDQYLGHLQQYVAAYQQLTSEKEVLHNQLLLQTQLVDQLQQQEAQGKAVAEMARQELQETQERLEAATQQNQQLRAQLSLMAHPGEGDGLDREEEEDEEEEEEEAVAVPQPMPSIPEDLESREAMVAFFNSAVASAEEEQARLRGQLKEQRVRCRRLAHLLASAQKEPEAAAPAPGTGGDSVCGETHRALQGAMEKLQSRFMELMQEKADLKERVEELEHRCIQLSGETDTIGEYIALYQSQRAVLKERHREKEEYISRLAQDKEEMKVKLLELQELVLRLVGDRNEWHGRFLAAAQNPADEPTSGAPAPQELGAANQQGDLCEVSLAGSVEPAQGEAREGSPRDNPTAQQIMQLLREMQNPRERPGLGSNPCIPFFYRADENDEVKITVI
# B3: Ubiquitin thioesterase OTUB2 (Homo sapiens), Q96DC9 (parent)
# chain: MSETSFNLISEKCDILSILRDHPENRIYRRKIEELSKRFTAIRKTKGDGNCFYRALGYSYLESLLGKSREIFKFKERVLQTPNDLLAAGFEEHKFRNFFNAFYSVVELVEKDGSVSSLLKVFNDQSASDHIVQFLRLLTSAFIRNRADFFRHFIDEEMDIKDFCTHEVEPMATECDHIQITALSQALSIALQVEYVDEMDTALNHHVFPEAATPSVYLLYKTSHYNILYAADKH
# partner: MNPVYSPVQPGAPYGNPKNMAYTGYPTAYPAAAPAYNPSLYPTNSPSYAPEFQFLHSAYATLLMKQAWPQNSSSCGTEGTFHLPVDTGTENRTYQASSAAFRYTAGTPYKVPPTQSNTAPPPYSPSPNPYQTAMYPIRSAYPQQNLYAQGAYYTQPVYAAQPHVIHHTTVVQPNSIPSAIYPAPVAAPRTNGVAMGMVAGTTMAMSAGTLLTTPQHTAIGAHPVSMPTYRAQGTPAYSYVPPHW
# B4: Hematopoietic lineage cell-specific protein (Homo sapiens), P14317 (parent)
# chain: MWKSVVGHDVSVSVETQGDDWDTDPDFVNDISEKEQRWGAKTIEGSGRTEHINIHQLRNKVSEEHDVLRKKEMESGPKASHGYGGRFGVERDRMDKSAVGHEYVAEVEKHSSQTDAAKGFGGKYGVERDRADKSAVGFDYKGEVEKHTSQKDYSRGFGGRYGVEKDKWDKAALGYDYKGETEKHESQRDYAKGFGGQYGIQKDRVDKSAVGFNEMEAPTTAYKKTTPIEAASSGTRGLKAKFESMAEEKRKREEEEKAQQVARRQQERKAVTKRSPEAPQPVIAMEEPAVPAPLPKKISSEAWPPVGTPPSSESEPVRTSREHPVPLLPIRQTLPEDNEEPPALPPRTLEGLQVEEEPVYEAEPEPEPEPEPEPENDYEDVEEMDRHEQEDEPEGDYEEVLEPEDSSFSSALAGSSGCPAGAGAGAVALGISAVAVYDYQGEGSDELSFDPDDVITDIEMVDEGWWRGRCHGHFGLFPANYVKLLE
# partner: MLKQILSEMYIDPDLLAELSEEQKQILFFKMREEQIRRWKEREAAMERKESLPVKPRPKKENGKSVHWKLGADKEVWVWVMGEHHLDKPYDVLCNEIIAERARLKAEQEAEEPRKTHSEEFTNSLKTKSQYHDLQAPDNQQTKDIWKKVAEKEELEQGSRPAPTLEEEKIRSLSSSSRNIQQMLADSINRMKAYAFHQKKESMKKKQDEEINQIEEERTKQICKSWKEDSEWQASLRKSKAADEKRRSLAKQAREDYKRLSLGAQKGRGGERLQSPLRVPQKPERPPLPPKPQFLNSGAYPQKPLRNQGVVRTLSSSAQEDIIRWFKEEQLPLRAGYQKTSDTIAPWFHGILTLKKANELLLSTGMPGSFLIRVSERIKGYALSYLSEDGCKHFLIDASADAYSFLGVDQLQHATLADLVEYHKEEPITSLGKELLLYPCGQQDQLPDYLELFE
# Variants of: B1
# Settings: with fnd11_human FNDC11, Q9BVV2
row,effect of a mutation on the interaction,Variant
1,with no effect,T223A
2,with no effect,S449R

# Variants of: B2
# Settings: with goga2_human GOLGA2, Q08379
row,effect of a mutation on the interaction,Variant
1,with no effect,A279V

# Variants of: B3
# Settings: with FAM168A
row,effect of a mutation on the interaction,Variant
1,with no effect,V78I
2,disrupting interaction strength,R146P

# Variants of: B4
# Settings: with sh24a_human SH2D4A
row,effect of a mutation on the interaction,Variant
1,with no effect,P218L
2,with no effect,W21C
3,with no effect,E361K

# From IntAct's records for PubMed 31515488
